Laboratory results reported in US20230149515A1, “INHIBITION OF SARS-COV-2 VIRAL ENTRY THROUGH ORAL ADMINISTRATION OF L[…] USES THEREOF” (priority 2020, published 2023).

System: SARS-CoV-2
Format: cell-based

B1: lactoferrin (protein, UniProt P02788 20-710, looked up)
Lactotransferrin: GRRRSVQWCAVSQPEATKCFQWQRNMRKVRGPPVSCIKRDSPIQCIQAIAENRADAVTLDGGFIYEAGLAPYKLRPVAAEVYGTERQPRTHYYAVAVVKKGGSFQLNELQGLKSCHTGLRRTAGWNVPIGTLRPFLNWTGPPEPIEAAVARFFSASCVPGADKGQFPNLCRLCAGTGENKCAFSSQEPYFSYSGAFKCLRDGAGDVAFIRESTVFEDLSDEAERDEYELLCPDNTRKPVDKFKDCHLARVPSHAVVARSVNGKEDAIWNLLRQAQEKFGKDKSPKFQLFGSPSGQKDLLFKDSAIGFSRVPPRIDSGLYLGSGYFTAIQNLRKSEEEVAARRARVVWCAVGEQELRKCNQWSGLSEGSVTCSSASTTEDCIALVLKGEADAMSLDGGYVYTAGKCGLVPVLAENYKSQQSSDPDPNCVDRPVEGYLAVAVVRRSDTSLTWNSVKGKKSCHTAVDRTAGWNIPMGLLFNQTGSCKFDEYFSQSCAPGSDPRSNLCALCIGDEQGENKCVPNSNERYYGYTGAFRCLAENAGDVAFVKDVTVLQNTDGNNNEAWAKDLKLADFALLCLDGKRKPVTEARSCHLAMAPNHAVVSRMDKVERLKQVLLHQQAKFGRNGSDCPDKFCLFQSETKNLLFNDNTECLARLHGKTTYEKYLGPQYVAGITNLKKCSTSPLLEACEFLRK
- efficacy in preventing SARS-CoV-2 infection (Huh-7 cells, FIG. 2): ~100%
- inhibition of SARS-CoV-2 infection (efficacy) (all concentrations of lactoferrin tested, FIG. 3B): 100%
- reduction in SARS-Cov-2 synctitia (dose response study, all concentrations tested ranging from 200 ug/mL to 12.5 ug/mL, compared to viral control, FIG. 3A): > 95%
